From EP4786492A1
Residue numbers refer to the chain shown, from its start. Blank lines part the entries; values can stand above or below the binder they belong to.

Columns and labels:
[1] = biological target: monkey DLL3 on CHO-K1-cyno DLL3 cells (cynomolgus monkey); experiment: FACS, CHO-K1-cyno DLL3 cells, 20 nM antibody
[2] = biological target: human DLL3 protein expressed on CHO-K1 recombinant cells (human DLL3 extracellular segment fused to EpCAM transmembrane and intracellular regions) (human) (UniProt Q9NYJ7); experiment: FACS, CHO-K1 hDLL3 cells, 100 nM antibody
Sequence of human DLL3 protein expressed on CHO-K1 recombinant cells (human DLL3 extracellular segment fused to EpCAM transmembrane and intracellular regions) (human) (Q9NYJ7 other isoform, or with tags, fused parts or gaps limits assumed): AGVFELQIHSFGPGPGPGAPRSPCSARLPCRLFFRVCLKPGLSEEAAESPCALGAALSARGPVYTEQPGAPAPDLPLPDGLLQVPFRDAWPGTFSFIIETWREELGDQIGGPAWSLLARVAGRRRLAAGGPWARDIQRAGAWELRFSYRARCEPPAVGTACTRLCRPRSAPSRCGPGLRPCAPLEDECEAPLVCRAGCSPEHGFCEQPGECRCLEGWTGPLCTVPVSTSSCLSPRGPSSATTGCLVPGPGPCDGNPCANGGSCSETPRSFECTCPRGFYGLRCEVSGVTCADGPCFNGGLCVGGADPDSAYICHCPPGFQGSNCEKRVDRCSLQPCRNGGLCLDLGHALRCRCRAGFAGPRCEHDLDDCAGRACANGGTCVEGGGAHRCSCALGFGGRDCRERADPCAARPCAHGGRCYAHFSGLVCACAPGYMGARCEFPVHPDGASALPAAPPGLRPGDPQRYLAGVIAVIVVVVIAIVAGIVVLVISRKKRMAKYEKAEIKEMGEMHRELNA

[3] = biological target: DLL3 endogenously expressed on NCI-H82 cells (UniProt Q9NYJ7); experiment: FACS on NCI-H82 cells; antibody 0.16 nM
Sequence of DLL3 endogenously expressed on NCI-H82 cells (Q9NYJ7 27-618): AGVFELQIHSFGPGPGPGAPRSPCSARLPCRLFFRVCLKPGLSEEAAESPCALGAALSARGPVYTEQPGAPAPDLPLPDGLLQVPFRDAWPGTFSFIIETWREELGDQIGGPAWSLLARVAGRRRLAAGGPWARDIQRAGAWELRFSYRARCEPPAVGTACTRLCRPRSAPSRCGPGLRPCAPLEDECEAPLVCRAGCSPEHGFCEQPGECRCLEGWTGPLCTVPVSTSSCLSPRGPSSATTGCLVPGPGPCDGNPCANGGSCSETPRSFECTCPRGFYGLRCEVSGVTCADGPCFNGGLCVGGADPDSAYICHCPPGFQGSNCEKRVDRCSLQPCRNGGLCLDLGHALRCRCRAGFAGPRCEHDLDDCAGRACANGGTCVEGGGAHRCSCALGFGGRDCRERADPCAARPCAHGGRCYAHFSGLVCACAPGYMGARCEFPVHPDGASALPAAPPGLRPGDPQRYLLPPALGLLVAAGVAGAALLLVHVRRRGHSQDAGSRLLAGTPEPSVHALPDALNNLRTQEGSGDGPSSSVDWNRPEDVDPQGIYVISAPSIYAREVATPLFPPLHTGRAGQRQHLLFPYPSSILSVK

[4] = biological target: monkey DLL3 on CHO-K1-cyno DLL3 cells (cynomolgus monkey); experiment: FACS, CHO-K1-cyno DLL3 cells, 100 nM antibody
[5] = biological target: monkey DLL3 on CHO-K1-cyno DLL3 cells (cynomolgus monkey); experiment: FACS, CHO-K1-cyno DLL3 cells, 0.8 nM antibody
[6] = biological target: human DLL1 protein (Acro, Cat. No. DL1-H52H8) (human) (UniProt O00548); experiment: ELISA, coated hDLL1; maximum over 0.1, 1, 10, 100 nM antibody
Sequence of human DLL1 protein (Acro, Cat. No. DL1-H52H8) (human) (O00548 18-540 limits assumed): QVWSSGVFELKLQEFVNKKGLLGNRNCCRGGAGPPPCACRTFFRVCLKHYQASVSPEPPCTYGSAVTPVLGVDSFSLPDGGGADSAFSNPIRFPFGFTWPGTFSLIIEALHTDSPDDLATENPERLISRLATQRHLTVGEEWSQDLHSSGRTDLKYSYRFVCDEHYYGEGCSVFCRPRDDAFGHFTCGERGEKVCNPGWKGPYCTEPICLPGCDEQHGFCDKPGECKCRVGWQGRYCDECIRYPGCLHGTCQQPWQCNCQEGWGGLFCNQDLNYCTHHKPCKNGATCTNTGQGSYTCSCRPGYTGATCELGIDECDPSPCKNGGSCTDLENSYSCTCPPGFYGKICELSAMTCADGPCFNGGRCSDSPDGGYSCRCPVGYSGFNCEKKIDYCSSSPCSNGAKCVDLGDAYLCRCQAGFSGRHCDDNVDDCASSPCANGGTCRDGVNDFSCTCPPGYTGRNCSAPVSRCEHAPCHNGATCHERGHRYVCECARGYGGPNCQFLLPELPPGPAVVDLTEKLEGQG

[7] = biological target: human DLL3 protein (extracellular segment, His tag) (human) (UniProt Q9NYJ7); experiment: SPR (Biacore 8K), antibody captured on Protein A chip, DLL3 antigen in solution, 1:1 Langmuir fit
Sequence of human DLL3 protein (extracellular segment, His tag) (human) (Q9NYJ7 27-492): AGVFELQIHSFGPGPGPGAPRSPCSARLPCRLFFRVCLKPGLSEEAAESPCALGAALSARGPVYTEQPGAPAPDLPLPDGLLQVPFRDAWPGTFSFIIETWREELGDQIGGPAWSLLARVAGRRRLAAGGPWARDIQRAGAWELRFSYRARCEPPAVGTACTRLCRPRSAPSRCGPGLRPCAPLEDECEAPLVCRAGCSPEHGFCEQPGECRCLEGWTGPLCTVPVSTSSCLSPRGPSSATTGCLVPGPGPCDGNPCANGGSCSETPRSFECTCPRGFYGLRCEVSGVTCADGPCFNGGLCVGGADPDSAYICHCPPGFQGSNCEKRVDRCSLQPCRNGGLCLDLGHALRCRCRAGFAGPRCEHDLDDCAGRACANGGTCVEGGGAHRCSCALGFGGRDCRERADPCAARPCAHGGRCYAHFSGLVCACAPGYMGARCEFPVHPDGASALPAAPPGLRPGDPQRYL

[8] = biological target: DLL3 endogenously expressed on NCI-H82 cells (UniProt Q9NYJ7); experiment: FACS on NCI-H82 cells; antibody 0.00128 nM
[9] = biological target: DLL3 endogenously expressed on NCI-H82 cells (UniProt Q9NYJ7); experiment: FACS on NCI-H82 cells; antibody 0.8 nM
[10] = biological target: monkey DLL3 on CHO-K1-cyno DLL3 cells (cynomolgus monkey); experiment: FACS, CHO-K1-cyno DLL3 cells, 0.16 nM antibody
[11] = biological target: DLL3 endogenously expressed on NCI-H82 cells (UniProt Q9NYJ7); experiment: FACS on NCI-H82 cells; antibody 0.032 nM
[12] = biological target: DLL3 endogenously expressed on NCI-H82 cells (UniProt Q9NYJ7); experiment: FACS on NCI-H82 cells; antibody 4 nM
[13] = biological target: human DLL3 protein expressed on CHO-K1 recombinant cells (human DLL3 extracellular segment fused to EpCAM transmembrane and intracellular regions) (human) (UniProt Q9NYJ7); experiment: FACS, CHO-K1 hDLL3 cells, 4 nM antibody
[14] = biological target: monkey DLL3 on CHO-K1-cyno DLL3 cells (cynomolgus monkey); experiment: FACS, CHO-K1-cyno DLL3 cells, 0.00128 nM antibody
[15] = biological target: human DLL4 protein (Acro, Cat. No. DL4-H5227) (human) (UniProt Q9NR61); experiment: ELISA, coated hDLL4; maximum over 0.1, 1, 10, 100 nM antibody
Sequence of human DLL4 protein (Acro, Cat. No. DL4-H5227) (human) (Q9NR61 27-524 limits assumed): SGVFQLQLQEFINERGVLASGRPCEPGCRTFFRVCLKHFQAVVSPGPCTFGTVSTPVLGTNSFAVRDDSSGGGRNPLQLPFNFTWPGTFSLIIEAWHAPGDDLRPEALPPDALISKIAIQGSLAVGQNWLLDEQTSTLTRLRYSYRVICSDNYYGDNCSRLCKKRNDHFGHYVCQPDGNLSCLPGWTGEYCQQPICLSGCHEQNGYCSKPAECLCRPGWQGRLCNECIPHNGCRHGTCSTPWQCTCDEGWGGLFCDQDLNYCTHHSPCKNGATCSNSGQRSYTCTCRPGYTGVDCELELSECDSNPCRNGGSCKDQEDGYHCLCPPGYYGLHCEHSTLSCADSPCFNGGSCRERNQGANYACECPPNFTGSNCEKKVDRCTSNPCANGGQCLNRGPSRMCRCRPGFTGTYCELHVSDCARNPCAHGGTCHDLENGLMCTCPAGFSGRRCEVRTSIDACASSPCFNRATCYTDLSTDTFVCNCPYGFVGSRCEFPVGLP

[16] = biological target: monkey DLL3 on CHO-K1-cyno DLL3 cells (cynomolgus monkey); experiment: FACS, CHO-K1-cyno DLL3 cells, 4 nM antibody
[17] = biological target: human delta-like ligand 3 (DLL3) on SHP77 cells (human) (UniProt Q9NYJ7); experiment: FACS on SHP77 cells
Sequence of human delta-like ligand 3 (DLL3) on SHP77 cells (human) (Q9NYJ7 27-618, stated change not applied): as the sequence (Q9NYJ7 27-618) above

[18] = biological target: human DLL3 protein expressed on CHO-K1 recombinant cells (human DLL3 extracellular segment fused to EpCAM transmembrane and intracellular regions) (human) (UniProt Q9NYJ7); experiment: FACS, CHO-K1 hDLL3 cells, 0.8 nM antibody
[19] = biological target: human DLL3 protein expressed on CHO-K1 recombinant cells (human DLL3 extracellular segment fused to EpCAM transmembrane and intracellular regions) (human) (UniProt Q9NYJ7); experiment: FACS, CHO-K1 hDLL3 cells, 0.16 nM antibody
[20] = biological target: monkey DLL3 on CHO-K1-cyno DLL3 cells (cynomolgus monkey); experiment: FACS, CHO-K1-cyno DLL3 cells, 0.0064 nM antibody
[21] = biological target: human DLL3 protein expressed on CHO-K1 recombinant cells (human DLL3 extracellular segment fused to EpCAM transmembrane and intracellular regions) (human) (UniProt Q9NYJ7); experiment: FACS, CHO-K1 hDLL3 cells, 0.0064 nM antibody
[22] = biological target: DLL3 endogenously expressed on NCI-H82 cells (UniProt Q9NYJ7); experiment: FACS on NCI-H82 cells; antibody 20 nM
[23] = biological target: DLL3 endogenously expressed on NCI-H82 cells (UniProt Q9NYJ7); experiment: FACS on NCI-H82 cells; antibody 100 nM
[24] = biological target: human DLL3 protein expressed on CHO-K1 recombinant cells (human DLL3 extracellular segment fused to EpCAM transmembrane and intracellular regions) (human) (UniProt Q9NYJ7); experiment: FACS, CHO-K1 hDLL3 cells, 0.00128 nM antibody
[25] = biological target: human DLL3 protein expressed on CHO-K1 recombinant cells (human DLL3 extracellular segment fused to EpCAM transmembrane and intracellular regions) (human) (UniProt Q9NYJ7); experiment: FACS, CHO-K1 hDLL3 cells, 20 nM antibody
[26] = biological target: monkey DLL3 on CHO-K1-cyno DLL3 cells (cynomolgus monkey); experiment: FACS, CHO-K1-cyno DLL3 cells, 0.032 nM antibody
[27] = biological target: DLL3 endogenously expressed on NCI-H82 cells (UniProt Q9NYJ7); experiment: FACS on NCI-H82 cells; antibody 0.0064 nM
[28] = biological target: human DLL3 protein expressed on CHO-K1 recombinant cells (human DLL3 extracellular segment fused to EpCAM transmembrane and intracellular regions) (human) (UniProt Q9NYJ7); experiment: FACS, CHO-K1 hDLL3 cells, 0.032 nM antibody

Sequence of monkey DLL3 on CHO-K1-cyno DLL3 cells (cynomolgus monkey) (chain, as listed by the source limits assumed): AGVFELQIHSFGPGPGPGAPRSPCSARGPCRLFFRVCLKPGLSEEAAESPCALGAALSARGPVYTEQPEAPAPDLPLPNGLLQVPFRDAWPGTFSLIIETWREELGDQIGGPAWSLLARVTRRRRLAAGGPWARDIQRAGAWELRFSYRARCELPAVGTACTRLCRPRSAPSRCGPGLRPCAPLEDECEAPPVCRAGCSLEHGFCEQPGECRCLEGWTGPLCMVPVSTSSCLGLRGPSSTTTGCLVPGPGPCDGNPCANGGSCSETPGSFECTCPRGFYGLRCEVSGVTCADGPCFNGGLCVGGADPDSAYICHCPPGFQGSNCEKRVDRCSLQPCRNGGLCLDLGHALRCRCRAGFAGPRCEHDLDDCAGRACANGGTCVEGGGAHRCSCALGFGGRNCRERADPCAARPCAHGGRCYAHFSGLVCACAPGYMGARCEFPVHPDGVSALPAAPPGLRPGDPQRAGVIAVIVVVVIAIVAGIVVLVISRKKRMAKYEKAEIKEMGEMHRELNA

- MFI [1]: 21300 MFI
- MFI [2]: 7600 MFI
- MFI [3]: 97
- MFI [4]: 21400 MFI
- MFI [5]: 3980 MFI
- Emax of OD450 nm binding value [6]: 0.04 OD450 nm
- Kd [7]: 529 pM
- koff [7]: 0.000405 s⁻¹
- kon [7]: 766000 M⁻¹ s⁻¹
- MFI [8]: 85
- MFI [9]: 135
- MFI [10]: 928 MFI
- MFI [11]: 90
- MFI [12]: 307
- MFI [13]: 7190 MFI
- MFI [14]: 103 MFI
- Emax of OD450 nm binding value [15]: 0.04 OD450 nm
- MFI [16]: 14800 MFI
- MFI at 0.00128 nM [17]: 117 MFI
- MFI at 0.0064 nM [17]: 117 MFI
- MFI at 0.032 nM [17]: 121 MFI
- MFI at 0.16 nM [17]: 129 MFI
- MFI at 0.8 nM [17]: 168 MFI
- MFI at 4 nM [17]: 255 MFI
- MFI at 20 nM [17]: 426 MFI
- MFI at 100 nM [17]: 613 MFI
- MFI [18]: 2700 MFI
- MFI [19]: 715 MFI
- MFI [20]: 148 MFI
- MFI [21]: 126 MFI
- MFI [22]: 448
- MFI [23]: 550
- MFI [24]: 98 MFI
- MFI [25]: 8200 MFI
- MFI [26]: 329 MFI
- MFI [27]: 89
- MFI [28]: 240 MFI
B1: Hab008L3H2a-hFc (scFv, part only; not given: VL-VH linker and human IgG1 Fc, V domains shown, not shown: another chain or arm of the molecule; a dimerising Fc or GST; small tags and cut ends)
VL: DIVMTQSPDSLAVSLGERATINCKASQNVGTAVAWYQQKPGQSPKLLIFSASIRYTGVPDRFSGSGSGTDFTLTISSLQAEDVAVYYCQQYSSSPYTFGGGTKVEIK
VH: EVQLVQSGAEVKKPGASVKVSCKASGYTFTDYYMNWVRQAPGQRLEWMGIINPYNSGTSYNQKFRGRVTLTVDKSASTAYMELSSLRSEDTAVYYCSRYDYDYDVEGAMDYWGQGTTVTVSS

- MFI [1]: 20300 MFI
- MFI [2]: 8950 MFI
- MFI [3]: 102
- MFI [4]: 21600 MFI
- MFI [5]: 3470 MFI
- Emax of OD450 nm binding value [6]: 0.11 OD450 nm
- Kd [7]: 902 pM
- koff [7]: 0.000312 s⁻¹
- kon [7]: 345000 M⁻¹ s⁻¹
- MFI [8]: 99
- MFI [9]: 152
- MFI [10]: 724 MFI
- MFI [11]: 91
- MFI [12]: 388
- MFI [13]: 7140 MFI
- MFI [14]: 103 MFI
- Emax of OD450 nm binding value [15]: 0.18 OD450 nm
- MFI [16]: 12900 MFI
- MFI at 0.00128 nM [17]: 117 MFI
- MFI at 0.0064 nM [17]: 117 MFI
- MFI at 0.032 nM [17]: 122 MFI
- MFI at 0.16 nM [17]: 133 MFI
- MFI at 0.8 nM [17]: 194 MFI
- MFI at 4 nM [17]: 330 MFI
- MFI at 20 nM [17]: 634 MFI
- MFI at 100 nM [17]: 974 MFI
- MFI [18]: 2370 MFI
- MFI [19]: 671 MFI
- MFI [20]: 142 MFI
- MFI [21]: 131 MFI
- MFI [22]: 674
- MFI [23]: 1340
- MFI [24]: 100 MFI
- MFI [25]: 8320 MFI
- MFI [26]: 252 MFI
- MFI [27]: 90
- MFI [28]: 235 MFI
B2: Hab008L3H5-hFc (scFv, part only; not given: scFv linker and human IgG1 Fc, V domains shown, not shown: another chain or arm of the molecule; a dimerising Fc or GST; small tags and cut ends)
VL: B1 VL
VH: B1 VH with Q39R, S56G, L70I
